For series [1], the target named is T1, His-MBP-Lin28TT (Homo sapiens, UniProt Q9H9Z2 32-187).
T1 sequence: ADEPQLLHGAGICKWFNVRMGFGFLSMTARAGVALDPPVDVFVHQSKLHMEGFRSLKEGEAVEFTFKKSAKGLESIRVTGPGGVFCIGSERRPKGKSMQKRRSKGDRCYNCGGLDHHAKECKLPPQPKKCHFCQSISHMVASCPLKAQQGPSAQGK
Kind of series: fluorescence anisotropy; 50 uM ZnCl2; FA: 20 nM 5'-fluorescein RNA, 20 mM Tris-HCl pH 7.5, 50-750 mM NaCl (100 mM for the main miR-363 Kd), 10 mM beta-mercaptoethanol, 50 uM ZnCl2, 0.01% Tween 20, 2. (In general: In fluorescence polarisation assays a small probe gives low polarisation when free and higher when bound to something large.)

Series [2] has as its target T1, His-MBP-Lin28TT. Kind of series: fluorescence anisotropy; 100 mM NaCl; 50 uM ZnCl2; FA: 20 nM 5'-fluorescein RNA, 20 mM Tris-HCl pH 7.5, 50-750 mM NaCl (100 mM for the main miR-363 Kd), 10 mM beta-mercaptoethanol, 50 uM ZnCl2, 0.01% Tween 20, 2.
Series [3] concerns the target T1, His-MBP-Lin28TT. Kind of series: fluorescence anisotropy; 250 mM NaCl; 50 uM ZnCl2; FA: 20 nM 5'-fluorescein RNA, 20 mM Tris-HCl pH 7.5, 50-750 mM NaCl (100 mM for the main miR-363 Kd), 10 mM beta-mercaptoethanol, 50 uM ZnCl2, 0.01% Tween 20, 2.
The target in series [4] is T1, His-MBP-Lin28TT. Description: fluorescence anisotropy; 500 mM NaCl; 50 uM ZnCl2; FA: 20 nM 5'-fluorescein RNA, 20 mM Tris-HCl pH 7.5, 50-750 mM NaCl (100 mM for the main miR-363 Kd), 10 mM beta-mercaptoethanol, 50 uM ZnCl2, 0.01% Tween 20, 2.
Series [5] deals with T1, His-MBP-Lin28TT. Kind of series: fluorescence anisotropy; 750 mM NaCl; 50 uM ZnCl2; FA: 20 nM 5'-fluorescein RNA, 20 mM Tris-HCl pH 7.5, 50-750 mM NaCl (100 mM for the main miR-363 Kd), 10 mM beta-mercaptoethanol, 50 uM ZnCl2, 0.01% Tween 20, 2.

One may read the Kd as a measure of binding affinity in units of concentration.

With CGGGUCUAUGAUACCACCCGGUACAGGAG (structured_RNA) [let-7g 29-57], the Kd with His-MBP-Lin28TT [1] amounted to 54.1 ± 4.2 nM.
Regarding GAUGCAAUUUUGAUGAGUAUCAUAGGAG (structured_RNA) [miR-363 19-46], the equilibrium dissociation constant (Kd) with His-MBP-Lin28TT [2] was 16.6 ± 1.9 nM; with His-MBP-Lin28TT [3], 6.6 ± 0.9 nM; with His-MBP-Lin28TT [4] it was 8 ± 0.8 nM; with His-MBP-Lin28TT [5], 12.4 ± 1.1 nM.

For the origin of these results see PMC5193468.
